Data on 32 sequences can be found in the Immune Epitope Database (IEDB).

Experiment [1] has as its target HLA-B*15:03. The experiment is described as follows: IEDB peptide-MHC binding, purified MHC/competitive/radioactivity; filed as Kd, often an IC50 or EC50 that approximates it; ≥ and ≤ were set here for values at or beyond the usual limits of such assays. The settings on record: source organism: Vaccinia virus WR.
The target of experiment [2] is HLA-A*03:01. The experiment is described as follows: IEDB peptide-MHC binding, purified MHC/competitive/fluorescence; ≥ and ≤ were set here for values at or beyond the usual limits of such assays.
The target in experiment [3] is HLA-A*11:01. The description is as above.
Experiment [4] concerns the target HLA-A*30:01. The experiment is described as follows: IEDB peptide-MHC binding, purified MHC/competitive/radioactivity; filed as Kd, often an IC50 or EC50 that approximates it; ≥ and ≤ were set here for values at or beyond the usual limits of such assays. The settings on record: source organism: Vaccinia virus WR.
For experiment [5], the target named is HLA-A*32:01. Described as above. The settings on record: source organism: Vaccinia virus WR.
For experiment [6], the target named is HLA-B*08:01. The description is as above. Particulars: source organism: Vaccinia virus WR.
Experiment [7] concerns the target HLA-B*15:01. Described as above. The settings on record: source organism: Vaccinia virus WR.
Experiment [8] has as its target HLA-A*68:02. The description is as above.
Experiment [9] deals with HLA-A*02:01. The experiment is described as follows: IEDB peptide-MHC binding, purified MHC/competitive/fluorescence; ≥ and ≤ were set here for values at or beyond the usual limits of such assays. The settings on record: source organism: Vaccinia virus Copenhagen.
Experiment [10] concerns the target HLA-A*31:01. The experiment is described as follows: IEDB peptide-MHC binding, purified MHC/competitive/radioactivity; filed as Kd, often an IC50 or EC50 that approximates it; ≥ and ≤ were set here for values at or beyond the usual limits of such assays. The settings on record: source organism: Vaccinia virus WR.
For experiment [11], the target named is HLA-A*33:01. The experiment is described as above. Particulars: source organism: Vaccinia virus WR.
The target of experiment [12] is HLA-A*68:01. The experiment is described as above. Particulars: source organism: Vaccinia virus WR.
Experiment [13] has as its target HLA-A*24:02. The experiment is described as follows: IEDB peptide-MHC binding, purified MHC/competitive/fluorescence; ≥ and ≤ were set here for values at or beyond the usual limits of such assays. The settings on record: source organism: Sudan ebolavirus.
In experiment [14] the target is HLA-A*01:01. The experiment is described as follows: IEDB peptide-MHC binding, purified MHC/direct/fluorescence; filed as Kd, often an IC50 or EC50 that approximates it; ≥ and ≤ were set here for values at or beyond the usual limits of such assays. The settings on record: source organism: Influenza A virus (A/Duck/Shantou/1881/00(H9N2)).
The target of experiment [15] is HLA-A*02:01. Described as above. Particulars: source organism: Influenza A virus (A/Duck/Shantou/1881/00(H9N2)).
The target of experiment [16] is HLA-A*02:03. Described as above. Particulars: source organism: Influenza A virus(A/swine/Henan/8/2004(H9N2)).
The target in experiment [17] is HLA-A*02:11. The description is as above. The settings on record: source organism: Influenza A virus(A/swine/Henan/8/2004(H9N2)).
The target of experiment [18] is HLA-A*02:12. The description is as above. The settings on record: source organism: Influenza A virus(A/swine/Henan/8/2004(H9N2)).
Experiment [19] concerns the target HLA-A*02:19. The experiment is described as above. The settings on record: source organism: Influenza A virus(A/swine/Henan/8/2004(H9N2)).
The target of experiment [20] is HLA-A*03:01. The experiment is described as above. The settings on record: source organism: Influenza A virus (A/Duck/Shantou/1881/00(H9N2)).
The target in experiment [21] is HLA-A*11:01. Described as above. Particulars: source organism: Influenza A virus (A/Duck/Shantou/1881/00(H9N2)).
Experiment [22] addresses HLA-A*24:03. The description is as above. The settings on record: source organism: Influenza A virus (A/Duck/Shantou/1881/00(H9N2)).
The target in experiment [23] is HLA-A*31:01. The experiment is described as above. Particulars: source organism: Influenza A virus (A/Duck/Shantou/1881/00(H9N2)).
The target of experiment [24] is HLA-B*07:02. The description is as above. Particulars: source organism: Influenza A virus (A/Duck/Shantou/1881/00(H9N2)).
The target of experiment [25] is HLA-B*15:01. The experiment is described as above. The settings on record: source organism: Influenza A virus (A/Duck/Shantou/1881/00(H9N2)).
Experiment [26] deals with HLA-B*27:05. Described as above. Particulars: source organism: Influenza A virus (A/Duck/Shantou/1881/00(H9N2)).
In experiment [27] the target is HLA-B*40:01. The description is as above. Particulars: source organism: Influenza A virus (A/Duck/Shantou/1881/00(H9N2)).
Experiment [28] deals with HLA-B*58:01. Described as above. The settings on record: source organism: Influenza A virus (A/Duck/Shantou/1881/00(H9N2)).
The target in experiment [29] is HLA-B*18:01. The experiment is described as follows: IEDB peptide-MHC binding, purified MHC/competitive/radioactivity; filed as Kd, often an IC50 or EC50 that approximates it; ≥ and ≤ were set here for values at or beyond the usual limits of such assays.
The target of experiment [30] is HLA-B*40:01. The description is as above.
Experiment [31] addresses HLA-B*40:02. Described as above.
The target in experiment [32] is HLA-B*44:02. Described as above.
In experiment [33] the target is HLA-B*44:03. The experiment is described as above.
Experiment [34] addresses HLA-B*45:01. The description is as above.
[35] abbreviates: source organism: Zaire ebolavirus.
[36] abbreviates: source organism: Sudan ebolavirus.
Where [37] appears, read: source organism: Vaccinia virus Copenhagen.
Setting [38] is: source organism: SARS coronavirus Tor2.
The mark [39] stands for this setting: source organism: Mammarenavirus choriomeningitidis.

Some results are limits rather than exact numbers.

As for IMVSEHFSL, the Kd – broadly, the concentration at which binding is half-saturated – in experiment [1] turned out to be 5.51 nM.
Turning to SLPRIALVR, the IC50 (usually the midpoint of a concentration-inhibition curve) in experiment [2] (source organism: Variola virus) was found to be 781 nM; in experiment [3] (source organism: Variola virus), 408 nM.
Take KMAADRGAF: the Kd in [1] came to 2.5 nM.
For HGFRFEVKK, the IC50 worked out at 2200 nM in experiment [2] (setting [35]) and 86.5 nM in [3] (setting [35]).
As for QTNTKATGK, the results for the IC50 in experiment [2] (setting [36]) and in [3] (setting [36]) were 14000 nM and 2180 nM, respectively.
Turning to RSLIIVLLF, the Kd in experiment [4] was found to be 2350 nM; in experiment [5], 299 nM; in experiment [6] it was 959 nM; in experiment [7] it was 194 nM; in experiment [1], 225 nM.
Take NTFVLKKEV: the Kd in [8] (source organism: Dengue virus 3 Martinique/1243/1999) was determined as 80.9 nM.
With ETVSEESNV, the Kd in [8] (source organism: Homo sapiens) is 44 nM.
With ILHHHRNVF, the Kd is 13 nM in experiment [6] and 1.33 nM in experiment [1].
In the case of FIMLEGETK, the values for the half-maximal inhibitory concentration (IC50) in experiment [9], in [2] (setting [37]) and in [3] (setting [37]) were 30700 nM, at least 116000 nM and 4880 nM, respectively. In addition, the Kd in [10] was 17800 nM; in [11], 4410 nM; in experiment [12], 28.1 nM.
TKTLDISSF: the Kd in experiment [1] is 54.5 nM.
With TYTILNRKA, the values for the IC50 in [2] (setting [36]), in [3] (setting [36]) and in experiment [13] were at least 94900 nM, at least 90000 nM and 22100 nM, respectively.
For the sequence FVYVPELSF, the values for the Kd in experiment [7] and in experiment [1] were 0.963 nM and 203 nM, respectively.
Turning to ALKTELEDTL, the Kd in experiment [8] (source organism: Homo sapiens) is at least 60000 nM.
In the case of NMFNISFRF, the Kd came to 27.2 nM in experiment [4]; 3.6 nM in experiment [5]; 1540 nM in [6]; 43.4 nM in experiment [7]; 18.5 nM in experiment [1].
As for RGSWATSSF, in experiment [1], the Kd was determined as 11.1 nM.
In the case of KPNSFTFSF, the Kd in [5] was 13900 nM; in experiment [1] it was 254 nM.
Consider KTIYAVDSF, for which the Kd in [4] is 1390 nM; in experiment [5], 6.78 nM; in experiment [6], at least 31900 nM; in experiment [7] it was 4.04 nM; in experiment [1], 321 nM.
Consider MIRILIGFLV, for which, in experiment [8] (source organism: Dengue virus 4 Dominica/814669/1981), the Kd stood at 295 nM.
In the case of GERYYFAYI, the Kd in [4] is 6620 nM; in experiment [5] it was 19500 nM; in experiment [6] it was 6.86 nM; in experiment [7], 673 nM; in [1], 238 nM.
Turning to SLPPNFSSL, the Kd in experiment [14] is at least 20000 nM; in experiment [15], 9.3 nM; in experiment [16] it was 3 nM; in experiment [17], 24 nM; in experiment [18] it was 5 nM; in experiment [19], 124 nM. Further, the dissociation constant Kd in experiment [20] was at least 20000 nM; in [21] it was at least 20000 nM; in [22], 7.5 nM; in experiment [23] it was at least 20000 nM; in experiment [24] it was 1650 nM; in experiment [25], 115 nM. Further, the Kd in experiment [26], in [27] and in experiment [28] was at least 20000 nM throughout.
As for REGVFVFNGT, the Kd is at least 70500 nM in experiment [29] (setting [38]); 677 nM in experiment [30] (setting [38]); 274 nM in experiment [31] (setting [38]); 1600 nM in experiment [32] (setting [38]); 306 nM in experiment [33] (setting [38]); 222 nM in [34] (setting [38]).
Take VEAVMYMGT: the Kd in [29] (setting [38]) was 2470 nM; in [30] (setting [38]), at least 31300 nM; in experiment [31] (setting [38]), 1320 nM; in [32] (setting [38]) it was at least 21900 nM; in experiment [33] (setting [38]) it was 6510 nM; in experiment [34] (setting [38]) it was 616 nM.
On to FIAFLRFLA, for which the Kd in experiment [8] (source organism: Dengue virus 1 Brazil/97-11/1997) is at most 1 nM.
On to FFKQTFGSL, for which the Kd in experiment [4] was 497 nM; in experiment [5], at least 55800 nM; in experiment [6], 0.735 nM; in [7], 1560 nM; in experiment [1] it was 1080 nM.
Turning to YKVFTDISM, the Kd in experiment [1] was found to be 2.18 nM.
For ADYLSCSHF, the Kd in experiment [29] (setting [39]) was at least 77500 nM; in experiment [30] (setting [39]), at least 47000 nM; in experiment [31] (setting [39]), 254 nM; in experiment [32] (setting [39]), 319 nM; in [33] (setting [39]), 2740 nM; in [34] (setting [39]) it was 17700 nM.
Consider RKYSDLVPK, for which the IC50 is 49100 nM in experiment [2] (setting [36]) and 4130 nM in [3] (setting [36]).
For the sequence ITKGRISDR, the IC50 in [2] (setting [36]) was 66300 nM; in experiment [3] (setting [36]) it was at least 135000 nM.
With SQQNSDSIF, in experiment [1], the Kd is 1.87 nM.
On the same count and under the same terms, with TKFTDFQDF the figure was 2.22 nM; with SGNRGSTSF, 25.2 nM.
